Test results taken from patent US4829052A, “Serine protease inhibitors” (Monsanto Company, priority 1987, dated 1989).

Legend:
[1] = molecular target: T1, PMN-derived human elastase activity (Homo sapiens, UniProt P08246); assay: 125I-Fibronectin assay with stimulated PMN as source of elastase activity; type: cell-based; details: HLE equivalent of 4 nM, FIG. 3
T1 construct: Some assays employed elastase activity derived from freshly prepared neutrophils (PMN); endogenous in cells; host or cells: freshly prepared, stimulated neutrophils (PMN)
T1 sequence (P08246 30-267): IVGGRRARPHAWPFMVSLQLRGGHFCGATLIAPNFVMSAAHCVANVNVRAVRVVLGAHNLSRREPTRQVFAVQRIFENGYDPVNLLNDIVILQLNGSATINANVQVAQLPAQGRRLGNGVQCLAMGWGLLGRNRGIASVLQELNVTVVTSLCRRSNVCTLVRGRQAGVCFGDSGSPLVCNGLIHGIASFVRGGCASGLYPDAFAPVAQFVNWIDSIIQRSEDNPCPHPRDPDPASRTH
Procedure: The data points represent the mean of several (n=3 to 9) replicates compared to the control that contained no inhibitor.
This assay is designed to model the degradation of connective tissue. The assay is carried out essentially as described by Campbell, et al. (J. Clin. Invest., 1982, 70:845-52). Briefly, purified human plasma fibronectin (fn) is radiolabeled with ^125 I using Enzymobeads and conventional procedures. The desalted is diluted with fn to yield ca. cpm/ug. This material is further diluted with pH 9.6 barbital buffer and 200 ul (30 ug fn, 50000 cpm) is pipetted into the wells of a flat bottomed 96 well microtiter plate. The plates are dried for about 24 hours at 37° C. and unbound fn is removed with 2 washes of phosphate buffered saline (PBS). The plates are stored at 4° C. and are stable for at least 2 weeks.
For an assay each coated well is filled with a total volume of 200 μl. All measurements are carried out at optimal pH and buffer conditions. After addition of proteolytic activity with or without inhibitor the plate is incubated at 37° C. for 3 hours. The well contents are centrifuged and a 100 μl aliquot is counted for 1251gamma radiation. Some assays employed elastase activity derived from freshly prepared neutrophils (PMN). ln this case an activating agent to stimulate the PMN is present in the well and the PMN is added last. […]

bovine chymotrypsin = bovine chymotrypsin (Bos taurus, UniProt P00766); assay: Chymotrypsin assay (spectrophotometric, p-nitroanilide substrate); type: biochemical; details: inhibitor/protease ratio between about 10/1 and 50/1
Procedure: (§1) The inhibitory activity of the polypeptides of the present invention can be easily assayed using in vitro assays. In these types of spectrophotometric assays the activity of the serine protease is measured toward an appropriate p-nitroanilide substrate in the presence and absence of the peptide inhibitor. The enzyme catalyzed hydrolysis of the peptide p-nitroanilide substrate produces p-nitroanaline which results in an increase in absorbance which is monitored in the range of 405 to 410 nm. The rate of increase in absorbance is a measure of the enzymatic activity and the decrease in this rate relative to a suitable control is used to ascertain inhibition. The general assay procedure and details of the particular assays employed in the examples are provided in the Appendix following the examples. It is also possible to test the polypeptides in a functionally oriented assay that emulates in vivo conditions. Such an inhibition assay for elastase is also described in the Appendix.
(§2) Generalized Protocol Spectrophotometric Assays:
(§3) (1) Pipette 100 μl of enzyme solution into a disposable polystyrene cuvette (1 cm optical path length).
(§4) (2) Add (1900-X) μl of bufferto the cuvette, where X is the volume of test solution in microliters that is added in the next step.
(§5) Add X μl of test solution to the cuvette, where X ranges from 0 μl for the control to a maximum of about 500 μl. Incubate the solution for a period of 1 to 5 minutes at ambient temperature.
(§6) (4) Add 100 μl of substrate solution to the cuvette. Mix the contents by covering the cuvette with a piece of paraffin film and repeatedly inverting for a period of 5 to 15 seconds.
(§7) (5) Record the change in absorbance for about 5 minutes at either 405 or 410 nm, depending on the assay, with a spectrophotometer equipped with a suitable recording device.
(§8) The percent inhibition is calculated from the formula [formula] where (ΔA/min) is the initial rate of absorbance change.
(§9) (7) For more accurate quantitative determinations temperature control of the cuvette holders and the reagent solutions can be instituted.
(§10) (8) The test solution can be crude oxidized peptide prepared as described above, fractions from a chromatographic separation or purified polypeptides.
(A) Buffer solution - triethanolamine buffer- See trypsin assay.
(B) Substrate Solution - Dissolve 25 mg of 3-carbomethoxypropionyl-L-arginyl-L-prolyl-L-tyrosine p-nitroanilide (Product No. S-2586, KabiVitrum AB, Stockholm, Sweden) in 23.6 ml of water
(C) Enzyme solution - Dissolve 1 mg of bovine chymotrypsin in 4 ml of 0.001N HCl. Prepare the final dilution by combining 0.1 ml of the stock chymotrypsin solution and 10 ml of 0.001N HCl. Store on ice or at 4° C.
Procedure: Use the above solutions in the general protocol
(2) See note 1 of the cathepsin G assay.
(3) 0.1M Tris-HCl, pH 7.8, 20 mM CaCl2, 0.05% triton X-100 can be substituted for the triethanolamine buffer.

bovine trypsin = molecular target: T2, bovine trypsin (Bos taurus, UniProt P00760); assay: Trypsin assay (spectrophotometric, N-Benzoyl-L-arginine p-nitroanilide substrate); type: biochemical; details: inhibitor/protease ratio between about 10/1 and 50/1
T2 sequence (P00760 24-246): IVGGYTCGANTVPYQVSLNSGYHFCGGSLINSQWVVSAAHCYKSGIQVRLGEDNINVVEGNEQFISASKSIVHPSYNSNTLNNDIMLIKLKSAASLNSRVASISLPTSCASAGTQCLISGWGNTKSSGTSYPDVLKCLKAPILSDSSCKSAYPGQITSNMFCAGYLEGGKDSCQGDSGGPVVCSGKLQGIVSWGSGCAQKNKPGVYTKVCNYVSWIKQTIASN
Procedure: as §1, §2, §3, §4, §5, §6, §7, §8, §9, §10
(A) Buffer Solution - Triethanolamine buffer consisting of 200 mM triethanolamine, 20 mM CaCl2, pH 7.8
(B) Substrate solution - Dissolve 50 mg of N-Benzoyl-L-arginine p-nitroanilide in 50 ml of water. Sonicate for 5 to 10 minutes to completely dissolve the solid material.
(C) Enzyme solution - Dissolve 1 mg of bovine trypsin in 10 ml of 0.001N HCl stored on ice during the assay.
(D) Test Solution - See general protocol, number 8.
Procedure: Use the above solutions in the general protocol described above.

RVCPVILMKCKKDSDCLAECVCLEHGYCG (RVCPVILMKCKKDSDCLAECVCLEHGYCG) [Peptide 8]
inhibition of 125I fibronectin degradation [1]: nearly the same inhibitory profile against purified human elastase (HE) and PMN-derived HE activity
Inhibitory Activity Chymotrypsin (bovine chymotrypsin): - (Represents less than 10% inhibition)
Inhibitory Activity Trypsin (bovine trypsin): - (Represents less than 10% inhibition)
